These results are taken from FireProtDB (doi:10.1002/pro.370).

“And” between values parts separate entries of the source, which are not always exact repeats. Identical values can stand only once.

For the data set the following is noted: 25 °C, Urea, CD, whole UniProt chain shown.
Where [1] appears, read: Borreliella burgdorferi, pH 7, MOPS 30 mM.
Setting [2] is: Kitasatospora aureofaciens, pH 3, Glycine 30 mM.
Setting [3] is: Kitasatospora aureofaciens, pH 7, MOPS 30 mM.

B1: Variable large protein wild type, O06878 (protein)
chain: MKKISSAILLTTFFVFINCKSQVADKDDPTNKFYQSVIQLGNGFLDVFTSFGGLVAEAFGFKSDPKKSDVKTYFTTVAAKLEKTKTDLNSLPKEKSDISSTTGKPDSTGSVGTAVEGAIKEVSELLDKLVKAVKTAEGASSGTAAIGEVVADADAAKVADKASVKGIAKGIKEIVEAAGGSEKLKAVAAAKGENNKGAGKLFGKAGAAAHGDSEAASKAAGAVSAVSGEQILSAIVTAADAAEQDGKKPEEAKNPIAAAIGDKDGGAEFGQDEMKKDDQIAAAIALRGMAKDGKFAVKDGEKEKAEGAIKGAAESAVRKVLGAITGLIGDAVSSGLRKVGDSVKAASKETPPALNK
Turning to B1, under setting [1], the denaturant m value was 3.86 kcal/mol/M, the “denaturant midpoint (higher = more stable)” value (from here on “denaturant midpoint”) turned out to be 1.19 M and the unfolding free energy is 4.6 kcal/mol.

B2: Guanyl-specific ribonuclease Sa wild type, P05798 (protein)
chain: DVSGTVCLSALPPEATDTLNLIASDGPFPYSQDGVVFQNRESVLPTQSYGYYHEYTVITPGARTRGTRRIITGEATQEDYYTGDHYATFSLIDQTC
With B2, under setting [2], the denaturant m value was found to be 1.63 kcal/mol/M, the “denaturant midpoint” value came out at 1.6 M and the unfolding free energy came to 2.6 kcal/mol. Further, under setting [3], the denaturant m value is 1 kcal/mol/M and 0.94 kcal/mol/M; the “denaturant midpoint” value is 6.4 M and 6.45 M; the unfolding free energy was 6.4 kcal/mol and 6.1 kcal/mol.
